Reference: the Human Domainome abundance scans (Beltran et al. 2025)
± gives the uncertainty stated by the source.

B1: Tripartite motif-containing protein 49C, residues 87 to 133; numbered along this chain, P0CI26 (parent)
chain: SSEEQMCGTHRETKKIFCEVDRSLLCLLCSSSQEHRYHRHRPIEWAA

Variants of: B1
Assay: abundance fitness (aPCA) (normalised: wild type 0, dead -1); higher = more abundant; growth selection in yeast, the domain comes from the species named
Conditions: Homo sapiens

| Variant | abundance fitness |
| --- | --- |
| SSEEQMCGTHRETKKIFCEVSRSLLCLLCSSSQEHRYHRHRPIEWAA | -0.023 ± 0.094 |
| SSEEQMCGTHRETKKIFCEVQRSLLCLLCSSSQEHRYHRHRPIEWAA | 0.104 ± 0.1 |
| SSEEQMCGTHRETKKIFCEVYRSLLCLLCSSSQEHRYHRHRPIEWAA | -0.084 ± 0.19 |
| SSEEQMCGTHRETKKIFCEVNRSLLCLLCSSSQEHRYHRHRPIEWAA | -0.01 ± 0.13 |
| SSEEQMCGTHRETKKIFCEVDRSLLCLCCSSSQEHRYHRHRPIEWAA | -0.389 ± 0.16 |
| SSEEQMCGTHRETKKIFCEVDRSLLCLDCSSSQEHRYHRHRPIEWAA | -0.17 ± 0.27 |
| SSEEQMCGTHRETKKIFCEVDQSLLCLLCSSSQEHRYHRHRPIEWAA | 0.117 ± 0.15 |
| SSEEQMCGTHRETKKIFCEVDYSLLCLLCSSSQEHRYHRHRPIEWAA | -0.47 ± 0.29 |
| SSEEQMCGTHRETKKIFCEVDKSLLCLLCSSSQEHRYHRHRPIEWAA | 0.22 ± 0.12 |
| SSEEQMCGTHRETKKIFCEVDSSLLCLLCSSSQEHRYHRHRPIEWAA | -0.132 ± 0.11 |
| SSEEQMCGTHRETKKIFCEVDGSLLCLLCSSSQEHRYHRHRPIEWAA | 0.174 ± 0.098 |
| SSEEQMCGTHRETKKIFCEVDDSLLCLLCSSSQEHRYHRHRPIEWAA | -0.101 ± 0.26 |
| SSEEQMCGTHRETKKIFCEVDWSLLCLLCSSSQEHRYHRHRPIEWAA | -0.504 ± 0.16 |
| SSEEQMCGTHRETKKIFCEVDNSLLCLLCSSSQEHRYHRHRPIEWAA | 0.019 ± 0.22 |
| SSEEQMCGTHRETKKIFCEVDISLLCLLCSSSQEHRYHRHRPIEWAA | -0.588 ± 0.23 |
| SSEEQMCGTHRETKKIFCEVDESLLCLLCSSSQEHRYHRHRPIEWAA | 0.449 ± 0.16 |
| SSEEQMCGTHRETKKIFCEVDLSLLCLLCSSSQEHRYHRHRPIEWAA | -0.327 ± 0.13 |
| SSEEQMCGTHRETKKIFCEVDASLLCLLCSSSQEHRYHRHRPIEWAA | -0.267 ± 0.11 |
| SSEEQMCGTHRETKKIFCEVDVSLLCLLCSSSQEHRYHRHRPIEWAA | -0.575 ± 0.098 |
| SSEEQMCGTHRETKKIFCEVDTSLLCLLCSSSQEHRYHRHRPIEWAA | -0.764 ± 0.16 |
| SSEEQMCGTHRETKKIFCEVDMSLLCLLCSSSQEHRYHRHRPIEWAA | -0.251 ± 0.15 |
| SSEEQMCGTHRETKKIFCEVDFSLLCLLCSSSQEHRYHRHRPIEWAA | -0.772 ± 0.23 |
| SSEEQMCGTHRETKKIFCEVDRSLLCNLCSSSQEHRYHRHRPIEWAA | 0.271 ± 0.09 |
| SSEEQMCGTHRETKKIFCEVDRSLLCSLCSSSQEHRYHRHRPIEWAA | 0.058 ± 0.072 |
| SSEEQMCGTHRETKKIFCEVDRSLLCDLCSSSQEHRYHRHRPIEWAA | 0.158 ± 0.084 |
| SSEEQMCGTHRETKKIFCEVDRSLLCMLCSSSQEHRYHRHRPIEWAA | 0.231 ± 0.08 |
| SSEEQMCGTHRETKKIFCEVDRSLLCRLCSSSQEHRYHRHRPIEWAA | 0.149 ± 0.07 |
| SSEEQMCGTHRETKKIFCEVDRSLLCELCSSSQEHRYHRHRPIEWAA | 0.437 ± 0.08 |

| Variant | abundance fitness |
| --- | --- |
| SSEEQMCGTHRETKKIFCEVDRSLLCFLCSSSQEHRYHRHRPIEWAA | -0.015 ± 0.083 |
| SSEEQMCGTHRETKKIFCEVDRSLLCWLCSSSQEHRYHRHRPIEWAA | -0.017 ± 0.077 |
| SSEEQMCGTHRETKKIFCEVDRSLLCGLCSSSQEHRYHRHRPIEWAA | 0.145 ± 0.068 |
| SSEEQMCGTHRETKKIFCEVDRSLLCILCSSSQEHRYHRHRPIEWAA | -0.063 ± 0.096 |
| SSEEQMCGTHRETKKIFCEVDRSLLCYLCSSSQEHRYHRHRPIEWAA | 0.059 ± 0.086 |
| SSEEQMCGTHRETKKIFCEVDRSLLCPLCSSSQEHRYHRHRPIEWAA | 0.132 ± 0.075 |
| SSEEQMCGTHRETKKIFCEVDRSLLCTLCSSSQEHRYHRHRPIEWAA | 0.106 ± 0.081 |
| SSEEQMCGTHRETKKIFCEVDRSLLCALCSSSQEHRYHRHRPIEWAA | 0.111 ± 0.074 |
| SSEEQMCGTHRETKKIFCEVDRSLLCQLCSSSQEHRYHRHRPIEWAA | 0.135 ± 0.081 |
| SSEEQMCGTHRETKKIFCEVDRSLNCLLCSSSQEHRYHRHRPIEWAA | -0.502 ± 0.41 |
| SSEEQMCGTHRETKKIFCEVDRSLSCLLCSSSQEHRYHRHRPIEWAA | -0.394 ± 0.1 |
| SSEEQMCGTHRETKKIFCEVDRSLWCLLCSSSQEHRYHRHRPIEWAA | -0.962 ± 0.15 |
| SSEEQMCGTHRETKKIFCEVDRSLHCLLCSSSQEHRYHRHRPIEWAA | -0.081 ± 0.22 |
| SSEEQMCGTHRETKKIFCEVDRSLECLLCSSSQEHRYHRHRPIEWAA | -0.586 ± 0.18 |
| SSEEQMCGTHRETKKIFCEVDRSLTCLLCSSSQEHRYHRHRPIEWAA | -0.612 ± 0.16 |
| SSEEQMCGTHRETKKIFCEVDRSLKCLLCSSSQEHRYHRHRPIEWAA | -0.59 ± 0.21 |
| SSEEQMCGTHRETKKIFCEVDRSLRCLLCSSSQEHRYHRHRPIEWAA | -0.45 ± 0.11 |
| SSEEQMCGTHRETKKIFCEVDRSLPCLLCSSSQEHRYHRHRPIEWAA | -1.06 ± 0.27 |
| SSEEQMCGTHRETKKIFCEVDRSLACLLCSSSQEHRYHRHRPIEWAA | -0.639 ± 0.12 |
| SSEEQMCGTHRETKKIFCEVDRSLCCLLCSSSQEHRYHRHRPIEWAA | -0.208 ± 0.17 |
| SSEEQMCGTHRETKKIFCEVDRSLQCLLCSSSQEHRYHRHRPIEWAA | -0.388 ± 0.14 |
| SSEEQMCGTHRETKKIFCEVDRSLFCLLCSSSQEHRYHRHRPIEWAA | -0.581 ± 0.16 |
| SSEEQMCGTHRETKKIFCEVDRSLVCLLCSSSQEHRYHRHRPIEWAA | 0.103 ± 0.088 |
| SSEEQMCGTHRETKKIFCEVDRSLICLLCSSSQEHRYHRHRPIEWAA | -0.033 ± 0.4 |
| SSEEQMCGTHRETKKIFCEVDRSLMCLLCSSSQEHRYHRHRPIEWAA | -0.5 ± 0.2 |
| SSEEQMCGTHRETKKIFCEVDRSLDCLLCSSSQEHRYHRHRPIEWAA | -0.725 ± 0.23 |
| SSEEQMCGTHRETKKIFCEVDRSLYCLLCSSSQEHRYHRHRPIEWAA | -0.02 ± 0.15 |
